Target: T1, TIM-3/Galectin-9 interaction (Homo sapiens, UniProt Q8TDQ0)
T1 construct: TIM-3 fusion protein (R&D Systems) was coated on a standard MesoScale 96 well plate; purchased R&D Systems
Assay: plate-based (MesoScale) TIM-3/Galectin-9 competition assay
Type: binding
Settings: TIM-3 fusion protein coated at 2 μg/ml; labeled Galectin-9 100 nM; serial dilutions
Protocol: TIM-3 fusion protein (R&D Systems) was coated on a standard MesoScale 96 well plate (Meso Scale Discovery) at 2 μg/ml in PBS (Phosphate Buffered Saline) and incubated for six hours at room temperature. The plate was washed three times with PBST (PBS buffer containing 0.05% Tween-20) and blocked with PBS containing 5% Probumin (Millipore) overnight at 4° C. After incubation, the plate was washed three times with PBST and unlabeled antibody (F38-2E2 (BioLegend); MBG453; MBG453 F(ab′)2; MBG453 F(ab); or control recombinant human Galectin-9 protein) diluted in Assay Diluent (2% Probumin, 0.1% Tween-20, 0.1% Triton X-100 (Sigma) with 10% StabilGuard (SurModics)), was added in serial dilutions to the plate and incubated for one hour on an orbital shaker at room temperature. The plate was then washed three times with PBST, and Galectin-9 labeled with MSD SULFOTag (Meso Scale Discovery) as per manufacturer's instructions, diluted in Assay Diluent to 100 nM, was added to the plate for one hour at room temperature on an orbital shaker. The plate was again washed three times with PBST, and Read Buffer T (1×) was added to the plate. The plate was read on MA600 Imager, and competition was assessed as a measure of the ability of the antibody to block Ga19-SULFOTag signal to TIM-3 receptor.

B1: control Galectin-9 protein: control recombinant human Galectin-9 protein, unlabeled (protein)
chain: AFSGSQAPYLSPAVPFSGTIQGGLQDGLQITVNGTVLSSSGTRFAVNFQTGFSGNDIAFHFNPRFEDGGYVVCNTRQNGSWGPEERKTHMPFQKGMPFDLCFLVQSSDFKVMVNGILFVQYFHRVPFHRVDTISVNGSVQLSYISFQPPGVWPANPAPITQTVIHTVQSAPGQMFSTPAIPPMMYPHPAYPMPFITTILGGLYPSKSILLSGTVLPSAQRFHINLCSGNHIAFHLNPRFDENAVVRNTQIDNSWGSEERSLPRKMPFVRGQSFSVWILCEAHCLKVAVDGQHLFEYYHRLRNLPTINRLEVGGDIQLTHVQT
- ability to block Gal9-SULFOTag signal to TIM-3 receptor (interaction between TIM-3 and Galectin-9): did not

From patent publication US20240301053A1, “COMBINATION THERAPIES WITH VENETOCLAX AND TIM-3 INHIBITORS” (Novartis AG, priority 2019, published 2024)
